Experimental data as given in article PMC2995781.

Legend:
[1] = molecular target: surfactant protein A (SP-A) in human broncho-alveolar lavage fluid (human (endogenous in BAL fluid)) (UniProt Q8IWL2); experiment: latex bead agglutination (light microscopy); whole serum or BAL sample; streptavidin latex beads with biotinylated rabbit anti-goat antibody and goat anti-human SP-A antibody (N19); Hank solution, 6.5 mM Ca2+, 3 h at 4°C on a microscope slide; size of the biggest agglutinate in pixel
[2] = molecular target: surfactant protein A (SP-A) in human serum (human (endogenous in serum)) (UniProt Q8IWL2); experiment: as above

| Substance | size of the agglutinates [1] [pixel] | size of the agglutinates [2] [pixel] |
| --- | --- | --- |
| surfactant protein A (SP-A) in human broncho-alveolar lavage fluid (from UniProt Q8IWL2 21-248) (natural protein) | 1060 |  |
| surfactant protein A (SP-A) in human serum (from UniProt Q8IWL2 21-248) (natural protein) |  | 1360 |
